Assays:
Test in all cases: BLI
[1] = biological target: Gly3-2-C1
[2] = biological target: TEA1-E8
[3] = biological target: Gly1-2-D4
[4] = biological target: Gly2-1-F2

- Kd [1]: 4.88 nM
- Kd [2]: 0.166 nM
- Kd [3]: 4.46 nM
- Kd [4]: < 0.001 nM
B1: MSLN (other)
chain: EVEKTACPSGKKAREIDESLIFYKKWELEACVDAALLATQMDRVNAIPFTYEQLDVLKHKLDELYPQGYPESVIQHLGYLFLKMSPEDIRKWNVTSLETLKALLEVNKGHEMSPQVATLIDRFVKGRGQLDKDTLDTLTAFYPGYLCSLSPEELSSVPPSSIWAVRPQDLDTCDPRQLDVLYPKARLAFQNMNGSEYFVKIQSFLGGAPTEDLKALSQQNVSMDLATFMKLRTDAVLPLTVAEVQKLLGPHVEGLKAEERHRPVRDWILRQRQDDLDTLGLGLQG

Reference: patent publication US20250255902A1 (published 2025)
